Consider 3 sequences from patent US20110265198.

Holding throughout (experiment): cell_activity
One series has as its system ZFN 25096 (synthetic). The settings on record: pair with 18473; Cel-I assay.
For a further series, the system named is ZFN 18473 (synthetic). To be noted: pair with 25096 (26.5% with 18477); Cel-I assay.
For the next series, the system named is ZFN 18477 (synthetic). The settings on record: pair with 18473; Cel-I assay.

Regarding “CTAGAAAGACTGGAGTTGCAGATCACGA (double strand) [25096 target]”, the activity in the series with ZFN 25096 (synthetic) is 35.7 % NHEJ.

As for “GATGGGCGGGAGTCTTCTGGGCAGGCTT (double strand) [18473 target]”, in the series on ZFN 18473 (synthetic), the activity worked out at 35.7 % NHEJ. In the series on ZFN 18477 (synthetic), “CTAGAAAGACTGGAGTTGCAGATCACGA (double strand) [18477 target]” came in with an activity of 26.5 % NHEJ.
